Blank lines part the entries; values can stand above or below the binder they belong to.
How the values were obtained:
[1] = target: T1, human TREM2 (hTREM2), expressed on cells (human, UniProt Q9NZC2 19-230); test: FACS, hM2A macrophages
T1 construct: Signal peptide 1-18 as stated left out; On CHO cells co-expressed with hDAP12; on hM2A macrophages endogenous; also called WT-TREM2; CHO-hDAP12-hTREM2
T1 sequence: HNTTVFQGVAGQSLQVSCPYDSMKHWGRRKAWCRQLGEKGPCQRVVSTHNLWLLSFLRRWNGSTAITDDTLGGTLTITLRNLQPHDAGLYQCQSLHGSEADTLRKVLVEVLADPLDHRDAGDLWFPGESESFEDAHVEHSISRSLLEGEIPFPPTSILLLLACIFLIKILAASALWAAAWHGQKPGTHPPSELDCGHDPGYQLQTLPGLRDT
Procedure: (§1) To determine cellular EC₅₀ of antibodies on hM2A, CHO-hTREM2 or CHO-cynoTREM2, cells were treated o/n with 5 μM DPC333 (ADAM10 and 17 inhibitor; Qian, M et al. Drug Metab Dispos, 2007. 35:p. 1916-1925). Macrophages were detached with accutase (Biolegend, 423201) followed by resuspension in FACS buffer (PBS, 2% FBS, 0.5 mM EDTA, pH 8.0) supplemented with 50 μg/ml Fc block (BD, 564220) and incubated for at least 20 min on ice. Next cells were stained for 1 h at 4° C. in the same buffer with a broad concentration range of the different anti-TREM2 antibodies followed by a washing step with PBS (250 g, 4° C., 3 min). […] After a second washing step with PBS (250 g, 4° C., 3 min), cells were fixed with fixation buffer (Biolegend, 420801) for 15 min at RT, washed again and fluorescence was assessed using a BD FACS Canto II (BD, V96300323) or a FacsCalibur flow cytometer. Median fluorescence intensities corresponding to the degree of TREM2 antibody bound to cells were evaluated using FlowJo software (Millipore INC).
(§2) Individual values for each donor are given.

[2] = target: T1, human TREM2 (hTREM2), expressed on cells; test: FACS, hM2A, donor 4
Procedure: as §1, §2

hTREM2 ECD (19-174) [3] = target: T2, hTREM2 ECD (19-174) (human, UniProt Q9NZC2 19-174); test: SET screening
T2 construct: Antigen in solution of the SET experiments; also called human TREM2 (SET antigen)
T2 sequence: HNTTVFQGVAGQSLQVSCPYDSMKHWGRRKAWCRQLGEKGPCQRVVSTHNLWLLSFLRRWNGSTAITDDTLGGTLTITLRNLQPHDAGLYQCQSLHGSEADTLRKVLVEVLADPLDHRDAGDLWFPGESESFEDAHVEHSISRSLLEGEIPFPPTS
Procedure: Serial dilutions of unlabeled antigen were prepared, starting with a concentration at least 10 times higher than the expected KD. Wells without antigen were used to determine Bmax values; wells containing only assay buffer were used to determine background.
The data was evaluated with XLfit (IDBS) software applying customized fitting models. […] A constant amount of diluted BEL extract (containing borate buffer, EDTA and lysozyme) was equilibrated over night with different concentrations of antigen.

[4] = target: T1, human TREM2 (hTREM2), expressed on cells; test: FACS, hM2A, donor 1
Procedure: as §1, §2

[5] = target: proteins of the protein panel profiling (3P), 25 in total; test: protein panel profiling (3P), ECL
[6] = target: T1, human TREM2 (hTREM2), expressed on cells; test: FACS, hM2A, donor 2
Procedure: as §1, §2

hTREM2 ECD (19-174)-hFc [7] = target: T3, hTREM2 ECD (19-174)-hFc (human, UniProt Q9NZC2 19-174, biotinylated in the -bio form); test: SPR, label free kinetics
T3 construct: Plain and biotinylated forms are kept as one molecule; also called hTREM2 ECD (19-174)-hFc-bio; hTREM2 Fc
T3 sequence: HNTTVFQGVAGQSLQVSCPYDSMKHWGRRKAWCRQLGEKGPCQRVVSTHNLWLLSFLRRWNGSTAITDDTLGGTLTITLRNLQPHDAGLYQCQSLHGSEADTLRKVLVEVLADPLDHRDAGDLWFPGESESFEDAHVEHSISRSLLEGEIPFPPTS
Procedure: (§3) For a precise assessment of the binding affinities of the antibodies affinity-determination by measuring kinetic rate constants was performed by SPR. In addition a comparison to cynomolgus TREM2 was performed (Table 21).

[8] = target: T4, cyTREM2 ECD (19-174)-APP-Avi (cynomolgus, UniProt A0A2K5UY34 49-204); test: SPR, label free kinetics
T4 construct: range 19-174
T4 sequence: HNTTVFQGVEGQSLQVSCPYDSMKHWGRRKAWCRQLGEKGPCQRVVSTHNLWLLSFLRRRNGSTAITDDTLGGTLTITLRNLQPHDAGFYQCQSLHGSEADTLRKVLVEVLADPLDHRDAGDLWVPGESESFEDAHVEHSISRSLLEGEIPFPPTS
Procedure: as §3

cyTREM2 ECD (19-174)-hFc = target: T5, cyTREM2 ECD (19-174)-hFc (cynomolgus, UniProt A0A2K5UY34 49-204); test: S/BG on recombinant protein
T5 construct: range 19-174; also called cyTREM2-ECD (19-174)-hFc-bio
T5 sequence: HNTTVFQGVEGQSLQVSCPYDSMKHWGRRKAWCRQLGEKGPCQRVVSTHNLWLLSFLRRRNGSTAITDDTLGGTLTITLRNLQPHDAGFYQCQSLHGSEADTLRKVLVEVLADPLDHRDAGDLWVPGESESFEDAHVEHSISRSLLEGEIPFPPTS

hTREM2 ECD (19-174)-hFc [9] = target: T3, hTREM2 ECD (19-174)-hFc; test: S/BG on recombinant protein
[10] = target: T6, hTREM2 IgSF-hTREM1 stalk-hFc (human, UniProt Q9NP99 135-205, limits assumed, biotinylated in the -bio form); test: S/BG on recombinant protein
T6 construct: domain: stalk region; also called hTREM2 IgSF-T1 stalk-hFc-bio; hTREM2 IgSF-hTREM1 stalk-hFc-bio
T6 sequence: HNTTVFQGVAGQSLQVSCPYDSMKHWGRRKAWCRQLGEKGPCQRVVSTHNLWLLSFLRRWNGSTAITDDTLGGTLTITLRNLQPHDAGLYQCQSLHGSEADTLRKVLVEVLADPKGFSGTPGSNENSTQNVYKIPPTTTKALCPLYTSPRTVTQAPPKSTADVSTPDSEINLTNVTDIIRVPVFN

[11] = target: T1, human TREM2 (hTREM2), expressed on cells; test: cell-based or functional assay
[12] = target: T1, human TREM2 (hTREM2), expressed on cells; test: FACS, hM2A, donor 3
Procedure: as §1, §2

[13] = target: T1, human TREM2 (hTREM2), expressed on cells; test: cell-based or functional assay; remark: listed apart in the source
[14] = target: T1, human TREM2 (hTREM2), expressed on cells; test: FACS, hM2A, median of 4 donors
Procedure: as §1, §2

[15] = target: T1, human TREM2 (hTREM2), expressed on cells; test: cell-based or functional assay; remark: listed apart in the source
[16] = target: T1, human TREM2 (hTREM2), expressed on cells; test: FACS, CHO-hTREM2 cells
Procedure: as §1

hTREM2 ECD (19-174) [17] = target: T2, hTREM2 ECD (19-174); test: SET
[18] = target: T7, cynomolgus TREM2 (construct not stated) (cynomolgus, UniProt A0A2K5UY34 49-204); test: SET
T7 construct: also called cyno TREM2
T7 sequence: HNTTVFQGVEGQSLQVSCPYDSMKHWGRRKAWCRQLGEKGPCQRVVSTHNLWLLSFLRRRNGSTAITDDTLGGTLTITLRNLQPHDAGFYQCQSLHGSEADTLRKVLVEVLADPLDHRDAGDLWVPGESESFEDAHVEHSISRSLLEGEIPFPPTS

[19] = target: T8, cynomolgus TREM2 expressed on CHO cells (cynomolgus, UniProt A0A2K5UY34 49-260); test: FACS, CHO-cyTREM2 cells
T8 construct: whole, on cells; also called CHO-cyTREM2; CHO-cynoTREM2
T8 sequence: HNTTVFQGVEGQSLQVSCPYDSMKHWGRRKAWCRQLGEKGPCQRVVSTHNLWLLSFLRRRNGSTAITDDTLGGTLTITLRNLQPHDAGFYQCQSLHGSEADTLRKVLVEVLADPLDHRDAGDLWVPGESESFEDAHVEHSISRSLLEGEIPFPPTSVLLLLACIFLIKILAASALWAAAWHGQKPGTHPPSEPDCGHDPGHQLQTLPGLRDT
Procedure: as §1

[20] = target: T1, human TREM2 (hTREM2), expressed on cells; test: cell-based or functional assay; remark: listed apart in the source
[21] = target: T1, human TREM2 (hTREM2), expressed on cells; test: FACS, hM2A macrophages; remark: listed apart in the source
[22] = target: T1, human TREM2 (hTREM2), expressed on cells; test: FACS, CHO-hDAP12-hTREM2 cells

EC50 [1]: < 2000 pM
EC50 [2]: 640 pM
Kd (hTREM2 ECD (19-174) [3]): < 600 pM
EC50 [4]: 730 pM
Cumulative binding ratio [5]: < 150
EC50 [6]: 540 pM
Kd (hTREM2 ECD (19-174)-hFc [7]): 3 pM
Kd [8]: 4 pM
S/BG (cyTREM2 ECD (19-174)-hFc): > 5
S/BG (hTREM2 ECD (19-174)-hFc [9]): > 5
S/BG [10]: > 20
Internalization compared to parental after 6 h [11]: 0.7 fold of parental
Internalization; fold over background after 6 h [11]: 33.3 fold
EC50 [12]: 540 pM
Fold TREM2 cell surface increase compared to isotype (hM2A, 100 nM o/n) [13]: 5.1 fold
EC50 [14]: 590 pM
TREM2 activation (fold in RGA) [15]: 1.3 fold
EC50 [16]: 160 pM
Kd (hTREM2 ECD (19-174) [17]): 3 pM
Kd [18]: 4 pM
EC50 [19]: 650 pM
B1: MOR044746 (antibody, V domains shown)
VH: QVQLQQSGPGLVKPSQTLSLTCAISGDSVSSSSAAWNWIRQSPSRGLEWLGHIGYRSKWYNEYAVSVKSRITINPDTSKNQFSLQLNSVTPEDTAVYYCARGMYGSVPYKEGYYFDIWGQGTLVTVSS
VL: DIQMTQSPSSLSASVGDRVTITCRASQGISSDLNWYQQKPGKAPKLLIYAASNLQSGVPSRFSGSGSGTDFTLTISSLQPEDFATYYCQQYTDESMTFGQGTKVEIK
notes: light chain 63); Human IgG vector of the campaign: IgG1f LALA; Matured from MOR042493; VH6 k1; also called MOR44746

RGA in THP-B5 cells (fold increase over BG) [20]: 2.1 fold
EC50 [21]: 700 pM
EC50 [22]: 500 pM
B2: MOR041877 (full IgG) (antibody, V domains shown)
VH: QVQLKESGPALVKPTQTLTLTCTFSGFSLSTSGVGVSWIRQPPGKALEWLALIFSDHDKIYSTSLKTRLTISKDTSKNQVVLTMTNMDPVDTATYYCARTLIDRSVYFDYWGQGTLVTVSS
VL: DIVLTQPPSVSGAPGQRVTISCSGSSSNIGHHYVSWYQQLPGTAPKLLIYDNTNRPSGVPDRFSGSKSGTSASLAITGLQAEDEADYYCATWDGLMNSIVFGGGTKLTVLG
